Test results published in patent US20240100134.

How the values were obtained:
[1] = target: recombinant plasminogen-linker-Fc fusion (human plasminogen, QA linker GQAGQAS, Fc)
[2] = target: T1, recombinant human plasminogen (not fused to Fc, wild-type)
T1 chain: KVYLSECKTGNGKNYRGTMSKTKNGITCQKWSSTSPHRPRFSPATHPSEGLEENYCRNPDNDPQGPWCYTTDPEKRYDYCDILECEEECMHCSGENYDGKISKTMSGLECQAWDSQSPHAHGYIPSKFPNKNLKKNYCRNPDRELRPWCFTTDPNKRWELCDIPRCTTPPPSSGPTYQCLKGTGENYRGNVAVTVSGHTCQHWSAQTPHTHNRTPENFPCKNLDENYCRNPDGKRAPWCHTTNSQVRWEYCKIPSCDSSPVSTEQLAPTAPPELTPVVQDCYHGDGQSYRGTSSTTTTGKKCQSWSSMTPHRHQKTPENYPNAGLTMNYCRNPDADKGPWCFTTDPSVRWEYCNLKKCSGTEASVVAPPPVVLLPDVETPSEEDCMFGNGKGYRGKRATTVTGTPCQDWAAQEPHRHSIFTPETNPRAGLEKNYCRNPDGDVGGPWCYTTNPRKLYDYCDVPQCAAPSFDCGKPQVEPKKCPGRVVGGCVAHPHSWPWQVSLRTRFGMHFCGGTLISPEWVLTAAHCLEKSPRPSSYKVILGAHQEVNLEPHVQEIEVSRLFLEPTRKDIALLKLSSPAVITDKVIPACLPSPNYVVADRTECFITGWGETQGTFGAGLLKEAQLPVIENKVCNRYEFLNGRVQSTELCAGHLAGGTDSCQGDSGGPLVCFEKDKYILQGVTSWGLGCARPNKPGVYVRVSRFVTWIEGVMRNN

B1: tissue-type plasminogen activator (protein)
chain: SYQVICRDEKTQMIYQQHQSWLRPVLRSNRVEYCWCNSGRAQCHSVPVKSCSEPRCFNGGTCQQALYFSDFVCQCPEGFAGKCCEIDTRATCYEDQGISYRGTWSTAESGAECTNWNSSALAQKPYSGRRPDAIRLGLGNHNYCRNPDRDSKPWCYVFKAGKYSSEFCSTPACSEGNSDCYFGNGSAYRGTHSLTESGASCLPWNSMILIGKVYTAQNPSAQALGLGKHNYCRNPDGDAKPWCHVLKNRRLTWEYCDVPSCSTCGLRQYSQPQFRIKGGLFADIASHPWQAAIFAKHRRSPGERFLCGGILISSCWILSAAHCFQERFPPHHLTVILGRTYRVVPGEEEQKFEVEKYIVHKEFDDDTYDNDIALLQLKSDSSRCAQESSVVRTVCLPPADLQLPDWTECELSGYGKHEALSPFYSERLKEAHVRLYPSSRCTSQHLLNRTVTDNMLCAGDTRSGGPQANLHDACQGDSGGPLVCLNDGRMTLVGIISWGLGCGQKDVPGVYTKVTNYLDWIRDNMRP
- Michelis-Menten analysis of activation (KM and Vmax), 10 mM EACA [1]: the kinetics of rPlg and rPlg-Fc activation are similar (as indicated by the KM and Vmax)
- activation measured by the hydrolysis of plasmin fluorogenic substrate H-Ala-Phe-Lys-AMC [1]: In the presence of tPA or uPA, comparable hydrolytic activity for rPlg and rPlg-Fc is observed
- Michelis-Menten analysis of activation (KM and Vmax), 10 mM EACA [2]: the kinetics of rPlg and rPlg-Fc activation are similar (as indicated by the KM and Vmax)
- activation measured by the hydrolysis of plasmin fluorogenic substrate H-Ala-Phe-Lys-AMC [2]: In the presence of tPA or uPA, comparable hydrolytic activity for rPlg and rPlg-Fc is observed
